These results are taken from publication PMC4667172.

The assay concerns the target T1, LONM (human mitochondrial matrix AAA+ protease) (human (endogenous in HeLa)) (UniProt P36776).
T1 sequence: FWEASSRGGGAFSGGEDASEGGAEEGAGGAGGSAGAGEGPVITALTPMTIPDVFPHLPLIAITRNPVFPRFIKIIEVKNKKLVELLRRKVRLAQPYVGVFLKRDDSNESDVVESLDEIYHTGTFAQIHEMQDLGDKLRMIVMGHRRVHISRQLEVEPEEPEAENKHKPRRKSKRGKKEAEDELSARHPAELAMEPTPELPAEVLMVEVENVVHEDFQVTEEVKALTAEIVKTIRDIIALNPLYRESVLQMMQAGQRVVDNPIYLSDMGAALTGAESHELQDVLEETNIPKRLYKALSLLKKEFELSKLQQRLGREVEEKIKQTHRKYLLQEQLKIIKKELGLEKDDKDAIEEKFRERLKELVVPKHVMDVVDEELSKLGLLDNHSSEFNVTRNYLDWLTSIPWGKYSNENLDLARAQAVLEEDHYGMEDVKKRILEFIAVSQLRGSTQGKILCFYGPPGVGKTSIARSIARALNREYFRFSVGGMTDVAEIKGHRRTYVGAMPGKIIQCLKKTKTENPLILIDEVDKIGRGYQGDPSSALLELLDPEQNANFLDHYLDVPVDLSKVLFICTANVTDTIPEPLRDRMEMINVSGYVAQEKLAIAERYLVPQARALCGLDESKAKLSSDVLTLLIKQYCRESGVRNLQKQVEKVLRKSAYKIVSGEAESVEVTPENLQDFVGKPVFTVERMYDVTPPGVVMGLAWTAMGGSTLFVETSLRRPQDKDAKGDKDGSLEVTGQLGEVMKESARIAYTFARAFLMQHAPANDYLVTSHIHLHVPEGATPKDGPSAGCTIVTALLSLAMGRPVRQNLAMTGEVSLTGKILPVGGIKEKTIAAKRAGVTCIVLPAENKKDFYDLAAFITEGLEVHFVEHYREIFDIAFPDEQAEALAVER

B1: mature recombinant OTC (rat ornithine transcarbamylase) (natural protein)
chain: SQVQLKGRDLLTLKNFTGEEIQYMLWLSADLKFRIKQKGEYLPLLQGKSLGMIFEKRSTRTRLSTETGFALLGGHPSFLTTQDIHLGVNESLTDTARVLSSMTDAVLARVYKQSDLDILAKEATIPIVNGLSDLYHPIQILADYLTLQEHYGSLKGLTLSWIGDGNNILHSIMMSAAKFGMHLQAATPKGYEPDPNIVKLAEQYAKENGTRLSMTNDPLEAARGGNVLITDTWISMGQEDEKKKRLQAFQGYQVTMKTAKVAASDWTFLHCLPRKPEEVDDEVFYSPRSLVFPEAENRKWTIMAVMVSLLTDYSPVLQKPKF
With B1, the half-life of guanidine-unfolded OTC (OTCU) in in vitro degradation by purified recombinant LONM with ATP turned out to be 15 min.

B2: Pig heart mitochondrial malate dehydrogenase (MDH) (natural protein)
chain: AKVAVLGASGGIGQPLSLLLKNSPLVSRLTLYDIAHTPGVAADLSHIETRATVKGYLGPEQLPDCLKGCDVVVIPAGVPRKPGMTRDDLFNTNATIVATLTAACAQHCPDAMICIISNPVNSTIPITAEVFKKHGVYNPNKIFGVTTLDIVRANAFVAELKGLDPARVSVPVIGGHAGKTIIPLISQCTPKVDFPQDQLSTLTGRIQEAGTEVVKAKAGAGSATLSMAYAGARFVFSLVDAMNGKEGVVECSFVKSQETDCPYFSTPLLLGKKGIEKNLGIGKISPFEEKMIAEAIPELKASIKKGEEFVKNMK
On to B2, for which the half-life of guanidine-unfolded MDH (MDHU) in in vitro degradation by purified recombinant LONM with ATP was 4 min.
